Measurements reported in patent US20180362645A1.

Molecular target: human pituitary adenylate cyclase-activating polypeptide type I receptor (human) (UniProt P41586)
Test: cell-based or functional assay

Chain of human pituitary adenylate cyclase-activating polypeptide type I receptor (human) (P41586 21-468): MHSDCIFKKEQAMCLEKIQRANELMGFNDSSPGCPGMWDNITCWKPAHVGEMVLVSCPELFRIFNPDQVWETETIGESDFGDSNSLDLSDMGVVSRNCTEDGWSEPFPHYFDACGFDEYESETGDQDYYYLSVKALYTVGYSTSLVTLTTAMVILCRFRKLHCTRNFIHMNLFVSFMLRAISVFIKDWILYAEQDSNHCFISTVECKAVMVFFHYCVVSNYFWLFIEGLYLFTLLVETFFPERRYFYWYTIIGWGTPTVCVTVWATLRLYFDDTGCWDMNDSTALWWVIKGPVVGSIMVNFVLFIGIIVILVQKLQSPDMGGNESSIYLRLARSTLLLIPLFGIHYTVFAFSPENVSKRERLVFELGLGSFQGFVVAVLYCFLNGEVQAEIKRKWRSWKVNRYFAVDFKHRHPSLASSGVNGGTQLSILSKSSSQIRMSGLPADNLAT

PAC1 EC50 (agonist activity): 2.3 nM
Binder: HSDAVFTDNYTRLRKQMAVKKYLNSILN (ligand, UniProt P01282 125-152, looked up) [VIP]
